Like-named read-outs stand apart in the source and are kept apart here.
Tests used:
[1] = Plasma PK of Tadalafil and Vardenafil after a single oral dose (LC/MS/MS); format: in vivo, mice; details: mouse, NSG mice, read-out: Plasma levels; for concentration at 1 h: 1 hour post dose; for concentration at 2 h: 2 hours post dose; for concentration at 4 h: 4 hours post dose; for concentration at 8 h: 8 hours post dose; for concentration at 12 h: 12 hours post dose; for concentration at 16 h: 16 hours post dose; for concentration at 24 h: 24 hours post dose
Description: Plasma samples collected over time and PDE5 inhibitor concentrations were determined by LC/MS/MS (Table 60). The Vardenafil/Tadalafil levels detected in the plasma declined over time and were commensurate with the initial dose orally administered to the animal.

[2] = approved dose, cited from earlier work
hPDE5 mutants [3] = target: T1, hPDE5 mutants (Homo sapiens, UniProt O76074); test: GFP MFI by FACS in HCT116 cells transduced with hPDE5 constructs; format: cell-based; details: for Vardenafil Stabilization ratio / Sildenafil Stabilization ratio / GFP by FACS, Sildenafil 10 μM / GFP by FACS, Vardenafil 1 μM: hotspot constructs; for Vardenafil Stabilization ratio: 1 μM Vardenafil; for Sildenafil Stabilization ratio: 10 μM Sildenafil; for GFP by FACS, Sildenafil 10 μM / GFP by FACS, Vardenafil 1 μM: HCT116
hPDE5 mutants [4] = test: as above; format: cell-based, human; details: for MFI: 48 hours, HCT 116 cells; for Sildenafil Destabilizing mutation coefficient / Vardenafil Destabilizing mutation coefficient / GFP by FACS, Sildenafil 0 μM (DMSO) / GFP by FACS, Vardenafil 0 μM (DMSO): hotspot constructs; for Sildenafil Destabilizing mutation coefficient: DMSO control of Sildenafil; for Sildenafil Destabilizing mutation coefficient / Vardenafil Destabilizing mutation coefficient: vs OT-001075; for Vardenafil Destabilizing mutation coefficient: DMSO control of Vardenafil; for GFP by FACS, Sildenafil 0 μM (DMSO): HCT116, DMSO control of Sildenafil; for GFP by FACS, Vardenafil 0 μM (DMSO): HCT116, DMSO control of Vardenafil
hPDE5 mutants [5] = target: T1, hPDE5 mutants; test: Western blot of AcGFP/GFP protein levels in HCT 116 cells expressing hPDE5 mutants; format: cell-based; set-up: GFP protein levels (western blot); fused on or other part: AcGFP reporter through a linker; details: vardenafil vs DMSO, HCT 116, R732 mutants
Description: Protein expression analysis of the combination mutants was performed in parallel via western blot. […] GAPDH levels were also analyzed to ensure even protein loading.

[6] = Table 44, Vardenafil 0.01 μM, 48 h, HCT 116
[7] = Table 44, Vardenafil 0.04 μM, 48 h, HCT 116
[8] = Table 44, Vardenafil 3.33 μM, 48 h, HCT 116
[9] = Table 44, Vardenafil 10 μM, 48 h, HCT 116
[10] = Table 44, Vardenafil 30 μM, 48 h, HCT 116
[11] = Table 44, Vardenafil 1000 μM, 48 h, HCT 116
[12] = Table 45, Sildenafil 0.01 μM, 48 h, HCT 116
[13] = Table 45, Sildenafil 0.04 μM, 48 h, HCT 116
[14] = Table 45, Sildenafil 3.33 μM, 48 h, HCT 116
[15] = Table 45, Sildenafil 10 μM, 48 h, HCT 116
[16] = Table 45, Sildenafil 30 μM, 48 h, HCT 116
[17] = Table 45, Sildenafil 1000 μM, 48 h, HCT 116
[18] = Tadalafil 0.01 μM, 48 hours, HCT 116 cells

CN1CC(=O)N2[C@H](c3ccc4c(c3)OCO4)c3[nH]c4ccccc4c3C[C@@H]2C1=O [Tadalafil]
concentration at 1 h ([1]; single oral dose 10 mg/kg): 6.8 µM
concentration at 2 h ([1]; single oral dose 10 mg/kg): 5.4 µM
concentration at 4 h ([1]; single oral dose 10 mg/kg): 3.9 µM
concentration at 8 h ([1]; single oral dose 10 mg/kg): 0.9 µM
concentration at 12 h ([1]; single oral dose 10 mg/kg): 100 nM
concentration at 16 h ([1]; single oral dose 10 mg/kg): 0 nM
concentration at 1 h ([1]; single oral dose 30 mg/kg): 19.8 µM
concentration at 2 h ([1]; single oral dose 30 mg/kg): 17.6 µM
concentration at 4 h ([1]; single oral dose 30 mg/kg): 12.1 µM
concentration at 8 h ([1]; single oral dose 30 mg/kg): 4.4 µM
concentration at 12 h ([1]; single oral dose 30 mg/kg): 500 nM
concentration at 16 h ([1]; single oral dose 30 mg/kg): 100 nM
concentration at 24 h ([1]; single oral dose 30 mg/kg): 0 nM
concentration at 1 h ([1]; single oral dose 100 mg/kg): 53.3 µM
concentration at 2 h ([1]; single oral dose 100 mg/kg): 44.7 µM
concentration at 4 h ([1]; single oral dose 100 mg/kg): 34.8 µM
concentration at 8 h ([1]; single oral dose 100 mg/kg): 13.7 µM
concentration at 12 h ([1]; single oral dose 100 mg/kg): 5600 nM
concentration at 16 h ([1]; single oral dose 100 mg/kg): 1500 nM
concentration at 24 h ([1]; single oral dose 100 mg/kg): 100 nM
Cmax ([2]; PO): 1500 nM
Duration of action [2]: 24 to 36 h

OT-001197: hPDE5 R732T AcGFP construct
MFI (hPDE5 mutants [3]; [6]): 2854
MFI (hPDE5 mutants [3]; [7]): 6862
MFI (hPDE5 mutants [3]; [8]): 41788
MFI (hPDE5 mutants [3]; [9]): 48946
MFI (hPDE5 mutants [3]; [10]): 67364
MFI (hPDE5 mutants [3]; [11]): 67364
MFI (hPDE5 mutants [3]; [12]): 856
MFI (hPDE5 mutants [3]; [13]): 1041
MFI (hPDE5 mutants [3]; [14]): 6896
MFI (hPDE5 mutants [3]; [15]): 12407
MFI (hPDE5 mutants [3]; [16]): 21258
MFI (hPDE5 mutants [3]; [17]): 21258
MFI (hPDE5 mutants [3]; [18]): 825
Vardenafil Stabilization ratio (hPDE5 mutants [3]): 1.15
Sildenafil Stabilization ratio (hPDE5 mutants [3]): 1.98
GFP by FACS, Sildenafil 10 μM (hPDE5 mutants [3]): 546
GFP by FACS, Vardenafil 1 μM (hPDE5 mutants [3]): 270
MFI (hPDE5 mutants [4]; Tadalafil 11.11 μM): 12843
MFI (hPDE5 mutants [4]; Tadalafil 33.33 μM): 17164
MFI (hPDE5 mutants [4]; Tadalafil 100 μM): 21113
MFI (hPDE5 mutants [4]; Tadalafil 1000 μM): 21113
Sildenafil Destabilizing mutation coefficient (hPDE5 mutants [4]): 0.28
Vardenafil Destabilizing mutation coefficient (hPDE5 mutants [4]): 1.46
GFP by FACS, Sildenafil 0 μM (DMSO) (hPDE5 mutants [4]): 276
GFP by FACS, Vardenafil 0 μM (DMSO) (hPDE5 mutants [4]): 235
GFP protein levels (western blot) (hPDE5 mutants [5]): strong stabilization of GFP levels

OT-001198: hPDE5 R732D AcGFP construct
MFI (hPDE5 mutants [3]; [6]): 4336
MFI (hPDE5 mutants [3]; [7]): 7350
MFI (hPDE5 mutants [3]; [8]): 44499
MFI (hPDE5 mutants [3]; [9]): 50822
MFI (hPDE5 mutants [3]; [10]): 70645
MFI (hPDE5 mutants [3]; [11]): 70645
MFI (hPDE5 mutants [3]; [12]): 1192
MFI (hPDE5 mutants [3]; [13]): 1270
MFI (hPDE5 mutants [3]; [14]): 6171
MFI (hPDE5 mutants [3]; [15]): 13971
MFI (hPDE5 mutants [3]; [16]): 21120
MFI (hPDE5 mutants [3]; [17]): 21120
MFI (hPDE5 mutants [3]; [18]): 1163
Vardenafil Stabilization ratio (hPDE5 mutants [3]): 1.44
Sildenafil Stabilization ratio (hPDE5 mutants [3]): 1.32
GFP by FACS, Sildenafil 10 μM (hPDE5 mutants [3]): 394
GFP by FACS, Vardenafil 1 μM (hPDE5 mutants [3]): 422
MFI (hPDE5 mutants [4]; Tadalafil 11.11 μM): 10583
MFI (hPDE5 mutants [4]; Tadalafil 33.33 μM): 16956
MFI (hPDE5 mutants [4]; Tadalafil 100 μM): 22630
MFI (hPDE5 mutants [4]; Tadalafil 1000 μM): 22630
Sildenafil Destabilizing mutation coefficient (hPDE5 mutants [4]): 0.3
Vardenafil Destabilizing mutation coefficient (hPDE5 mutants [4]): 1.83
GFP by FACS, Sildenafil 0 μM (DMSO) (hPDE5 mutants [4]): 298
GFP by FACS, Vardenafil 0 μM (DMSO) (hPDE5 mutants [4]): 294
GFP protein levels (western blot) (hPDE5 mutants [5]): strong stabilization of GFP levels

OT-001199: hPDE5 R732E AcGFP construct
Vardenafil Stabilization ratio (hPDE5 mutants [3]): 0.77
Sildenafil Stabilization ratio (hPDE5 mutants [3]): 1.07
GFP by FACS, Sildenafil 10 μM (hPDE5 mutants [3]): 316
GFP by FACS, Vardenafil 1 μM (hPDE5 mutants [3]): 212
Sildenafil Destabilizing mutation coefficient (hPDE5 mutants [4]): 0.3
Vardenafil Destabilizing mutation coefficient (hPDE5 mutants [4]): 1.71
GFP by FACS, Sildenafil 0 μM (DMSO) (hPDE5 mutants [4]): 295
GFP by FACS, Vardenafil 0 μM (DMSO) (hPDE5 mutants [4]): 276
GFP protein levels (western blot) (hPDE5 mutants [5]): strong stabilization of GFP levels

OT-001200: hPDE5 R732Q AcGFP construct
Vardenafil Stabilization ratio (hPDE5 mutants [3]): 0.95
Sildenafil Stabilization ratio (hPDE5 mutants [3]): 1.57
GFP by FACS, Sildenafil 10 μM (hPDE5 mutants [3]): 553
GFP by FACS, Vardenafil 1 μM (hPDE5 mutants [3]): 289
Sildenafil Destabilizing mutation coefficient (hPDE5 mutants [4]): 0.36
Vardenafil Destabilizing mutation coefficient (hPDE5 mutants [4]): 1.89
GFP by FACS, Sildenafil 0 μM (DMSO) (hPDE5 mutants [4]): 353
GFP by FACS, Vardenafil 0 μM (DMSO) (hPDE5 mutants [4]): 305
GFP protein levels (western blot) (hPDE5 mutants [5]): strong stabilization of GFP levels

OT-001201: hPDE5 R732N AcGFP construct
Vardenafil Stabilization ratio (hPDE5 mutants [3]): 0.93
Sildenafil Stabilization ratio (hPDE5 mutants [3]): 1.64
GFP by FACS, Sildenafil 10 μM (hPDE5 mutants [3]): 516
GFP by FACS, Vardenafil 1 μM (hPDE5 mutants [3]): 290
Sildenafil Destabilizing mutation coefficient (hPDE5 mutants [4]): 0.32
Vardenafil Destabilizing mutation coefficient (hPDE5 mutants [4]): 1.94
GFP by FACS, Sildenafil 0 μM (DMSO) (hPDE5 mutants [4]): 315
GFP by FACS, Vardenafil 0 μM (DMSO) (hPDE5 mutants [4]): 313
GFP protein levels (western blot) (hPDE5 mutants [5]): strong stabilization of GFP levels

OT-001202: hPDE5 R732M AcGFP construct
Vardenafil Stabilization ratio (hPDE5 mutants [3]): 1.07
Sildenafil Stabilization ratio (hPDE5 mutants [3]): 1.76
GFP by FACS, Sildenafil 10 μM (hPDE5 mutants [3]): 503
GFP by FACS, Vardenafil 1 μM (hPDE5 mutants [3]): 337
Sildenafil Destabilizing mutation coefficient (hPDE5 mutants [4]): 0.29
Vardenafil Destabilizing mutation coefficient (hPDE5 mutants [4]): 1.96
GFP by FACS, Sildenafil 0 μM (DMSO) (hPDE5 mutants [4]): 285
GFP by FACS, Vardenafil 0 μM (DMSO) (hPDE5 mutants [4]): 316
GFP protein levels (western blot) (hPDE5 mutants [5]): strong stabilization of GFP levels

OT-001203: hPDE5 R732C AcGFP construct
Vardenafil Stabilization ratio (hPDE5 mutants [3]): 0.66
Sildenafil Stabilization ratio (hPDE5 mutants [3]): 1.42
GFP by FACS, Sildenafil 10 μM (hPDE5 mutants [3]): 707
GFP by FACS, Vardenafil 1 μM (hPDE5 mutants [3]): 349
Sildenafil Destabilizing mutation coefficient (hPDE5 mutants [4]): 0.5
Vardenafil Destabilizing mutation coefficient (hPDE5 mutants [4]): 3.27
GFP by FACS, Sildenafil 0 μM (DMSO) (hPDE5 mutants [4]): 499
GFP by FACS, Vardenafil 0 μM (DMSO) (hPDE5 mutants [4]): 526
GFP protein levels (western blot) (hPDE5 mutants [5]): strong stabilization of GFP levels

OT-001204: hPDE5 R732K AcGFP construct
Vardenafil Stabilization ratio (hPDE5 mutants [3]): 3.74
Sildenafil Stabilization ratio (hPDE5 mutants [3]): 4.64
GFP by FACS, Sildenafil 10 μM (hPDE5 mutants [3]): 765
GFP by FACS, Vardenafil 1 μM (hPDE5 mutants [3]): 423
Sildenafil Destabilizing mutation coefficient (hPDE5 mutants [4]): 0.17
Vardenafil Destabilizing mutation coefficient (hPDE5 mutants [4]): 0.7
GFP by FACS, Sildenafil 0 μM (DMSO) (hPDE5 mutants [4]): 165
GFP by FACS, Vardenafil 0 μM (DMSO) (hPDE5 mutants [4]): 113
GFP protein levels (western blot) (hPDE5 mutants [5]): Modest ligand dependent stabilization of GFP levels

From US20220403001A1, “PDE5 DERIVED REGULATORY CONSTRUCTS AND METHODS OF USE IN IMMUNOTHERAPY” (Obsidian Therapeutics, Inc., priority 2018, published 2022)
